Experimental findings from article PMC7096168 are described below.

T1: dCTCF zinc finger cluster (UniProt Q9VS55 294-614)
T1 sequence: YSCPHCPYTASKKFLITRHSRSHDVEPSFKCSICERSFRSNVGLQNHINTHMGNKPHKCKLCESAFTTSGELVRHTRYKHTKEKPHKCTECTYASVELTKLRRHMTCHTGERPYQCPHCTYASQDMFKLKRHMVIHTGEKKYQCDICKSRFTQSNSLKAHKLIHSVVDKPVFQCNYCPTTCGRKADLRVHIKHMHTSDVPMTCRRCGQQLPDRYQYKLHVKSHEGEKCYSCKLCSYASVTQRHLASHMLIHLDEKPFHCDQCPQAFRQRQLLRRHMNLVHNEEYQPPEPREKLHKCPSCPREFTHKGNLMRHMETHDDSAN

T2: Su(Hw) zinc finger cluster (UniProt P08970 220-619)
T2 sequence: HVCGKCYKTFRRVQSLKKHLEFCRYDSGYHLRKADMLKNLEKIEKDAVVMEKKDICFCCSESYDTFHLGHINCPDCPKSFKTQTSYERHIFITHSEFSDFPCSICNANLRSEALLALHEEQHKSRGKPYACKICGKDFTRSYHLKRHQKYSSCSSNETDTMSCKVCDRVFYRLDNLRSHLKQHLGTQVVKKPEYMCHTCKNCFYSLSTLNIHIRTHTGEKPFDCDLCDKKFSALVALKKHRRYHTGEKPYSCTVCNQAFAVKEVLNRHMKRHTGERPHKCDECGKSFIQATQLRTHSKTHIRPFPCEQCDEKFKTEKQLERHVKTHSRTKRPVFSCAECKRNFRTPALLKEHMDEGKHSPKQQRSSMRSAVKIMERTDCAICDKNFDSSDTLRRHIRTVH

B1: F2177 (dsDNA)
DNA 1: ATGCCTAAAAGTATGCAGAAATTTGTTCAACAAGTCTGCTTATGTGCACCCTCTCGCGATCGGTGGCATAACCAATCGAGGATTCAGCTCTTGAGCTACCTGCCGAAAGGGGCGCGGCGACCTTAAGGGCGACATCTATATCTCGCATAGTGTGCAGAACTGCTTGTTCCTAGTCAC
DNA 2: GTGACTAGGAACAAGCAGTTCTGCACACTATGCGAGATATAGATGTCGCCCTTAAGGTCGCCGCGCCCCTTTCGGCAGGTAGCTCAAGAGCTGAATCCTCGATTGGTTATGCCACCGATCGCGAGAGGGTGCACATAAGCAGACTTGTTGAACAAATTTCTGCATACTTTTAGGCAT
B2: F2177ΔSu (dsDNA)
DNA 1: GTTCAACAAGTCTGCTTATGTGCACCCTCTCGCGATCGGTGGCATAACCAATCGAGGATTCAGCTCTTGAGCTACCTGCCGAAAGGGGCGCGGCGACCTTAAGGGCGACATCTATATCTCGCATAGTGTGCAGAACTGCTTGTTCCTAGTCAC
DNA 2: GTGACTAGGAACAAGCAGTTCTGCACACTATGCGAGATATAGATGTCGCCCTTAAGGTCGCCGCGCCCCTTTCGGCAGGTAGCTCAAGAGCTGAATCCTCGATTGGTTATGCCACCGATCGCGAGAGGGTGCACATAAGCAGACTTGTTGAAC
B3: F2177Δ21 (dsDNA)
DNA 1: ATGCCTAAAAGTATGCAGAAATTTGTTCAACAAGTCTGCTTATGTGCACCCTCTCGCGATCGGTGGCATAACCAATCGAGGATTCAGCTCTTGAGCTACCTGCAAGCTTAAGGGCGACATCTATATCTCGCATAGTGTGCAGAACTGCTTGTTCCTAGTCAC
DNA 2: GTGACTAGGAACAAGCAGTTCTGCACACTATGCGAGATATAGATGTCGCCCTTAAGCTTGCAGGTAGCTCAAGAGCTGAATCCTCGATTGGTTATGCCACCGATCGCGAGAGGGTGCACATAAGCAGACTTGTTGAACAAATTTCTGCATACTTTTAGGCAT
B4: CTCF×4 (dsDNA)
DNA 1: ACTAGTGCTGCAGCGCCACCTGGCCTTGGAGATCCTGCAGCGCCACCTGGCCTTGGAGATCCTGCAGCGCCACCTGGCCTTGGAGATCTCCAAGGCCAGGTGGCGCTGCAGCCCCGGG
DNA 2: CCCGGGGCTGCAGCGCCACCTGGCCTTGGAGATCTCCAAGGCCAGGTGGCGCTGCAGGATCTCCAAGGCCAGGTGGCGCTGCAGGATCTCCAAGGCCAGGTGGCGCTGCAGCACTAGT
B5: F2177ΔC (dsDNA)
DNA 1: ATGCCTAAAAGTATGCAGAAATTTGTTCAACAAGTCTGCTTATGTGCACCCTCTCGCGATCGGTGGCATAACCAATCGAGGATTCAGCTCTTGAGCTACCTGCCGAAAGGGGCGCGGCAACCTTAAGCTTGCATAGTGTGCAGAACTGCTTGTTCCTAGTCAC
DNA 2: GTGACTAGGAACAAGCAGTTCTGCACACTATGCAAGCTTAAGGTTGCCGCGCCCCTTTCGGCAGGTAGCTCAAGAGCTGAATCCTCGATTGGTTATGCCACCGATCGCGAGAGGGTGCACATAAGCAGACTTGTTGAACAAATTTCTGCATACTTTTAGGCAT

One data set addresses T1, dCTCF zinc finger cluster. The experiment in a line: EMSA.
Consider B1, for which the binding result is “binds”.
On to B2, for which the binding result is “binds”.
The same measure, in the same setting: then B3, with “binds”; and B4, with “binds”; and B5, with “no binding”.

A further data set concerns the target T2, Su(Hw) zinc finger cluster. Nature of the data set: EMSA.
On to B1, for which the binding result was “binds”.
Consider B2, for which the binding result is given as “no binding”.
As to B5, the binding result is on record as “binds”.
